Source: patent publication US20110123544A1 (published 2011)
Positions count from the first letter of the chain named. Numbers in names are those of the source. Like-named read-outs stand apart in the source and are kept apart here.

What was measured:
Baboon IL-12 (PBMC sup) = molecular target: T1, Baboon IL-12 (PBMC sup) (baboon); assay: cell-based or functional assay
T1 chain 1: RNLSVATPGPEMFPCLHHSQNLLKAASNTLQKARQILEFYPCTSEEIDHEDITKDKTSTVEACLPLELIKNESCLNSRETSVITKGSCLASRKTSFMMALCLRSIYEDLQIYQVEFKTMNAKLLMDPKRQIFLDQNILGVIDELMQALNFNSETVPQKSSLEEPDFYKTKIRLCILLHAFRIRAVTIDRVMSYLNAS
T1 chain 2: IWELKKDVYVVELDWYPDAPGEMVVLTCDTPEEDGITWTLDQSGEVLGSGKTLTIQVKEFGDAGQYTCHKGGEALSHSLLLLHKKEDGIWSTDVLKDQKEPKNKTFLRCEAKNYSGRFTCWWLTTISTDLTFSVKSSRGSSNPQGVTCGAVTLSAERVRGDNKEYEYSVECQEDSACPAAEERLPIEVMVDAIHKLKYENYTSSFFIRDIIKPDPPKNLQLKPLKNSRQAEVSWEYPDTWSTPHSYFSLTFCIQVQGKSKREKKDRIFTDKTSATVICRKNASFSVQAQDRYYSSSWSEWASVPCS

Cyno IL-12 (PBMC sup) = molecular target: T2, Cyno IL-12 (PBMC sup) (cynomolgus monkey); assay: cell-based or functional assay
T2 chain 1: T1 chain 1 with V82F, K85N, Q110K, I111M, M125R, R172K
T2 chain 2: T1 chain 2 with A230V

[1] = molecular target: recombinant human IL-12 (rhIL-12) (human) (UniProt P29459); assay: cell-based or functional assay
[2] = molecular target: recombinant rhesus IL-12 (rhesus monkey) (UniProt P48091); assay: cell-based or functional assay
[3] = molecular target: T3, recombinant human interleukin 12 (p40/p35 heterodimer) (human, UniProt P29460 23-328; P29459 23-219); assay: BIAcore; unmutated
T3 chain 1: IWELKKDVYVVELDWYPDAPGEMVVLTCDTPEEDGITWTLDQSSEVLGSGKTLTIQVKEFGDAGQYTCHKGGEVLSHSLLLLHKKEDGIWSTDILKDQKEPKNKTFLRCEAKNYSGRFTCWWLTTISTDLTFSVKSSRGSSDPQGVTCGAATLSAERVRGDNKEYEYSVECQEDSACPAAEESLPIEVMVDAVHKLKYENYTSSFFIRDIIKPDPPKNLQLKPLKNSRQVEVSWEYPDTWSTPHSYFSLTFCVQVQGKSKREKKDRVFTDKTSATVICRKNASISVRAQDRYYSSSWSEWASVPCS
T3 chain 2: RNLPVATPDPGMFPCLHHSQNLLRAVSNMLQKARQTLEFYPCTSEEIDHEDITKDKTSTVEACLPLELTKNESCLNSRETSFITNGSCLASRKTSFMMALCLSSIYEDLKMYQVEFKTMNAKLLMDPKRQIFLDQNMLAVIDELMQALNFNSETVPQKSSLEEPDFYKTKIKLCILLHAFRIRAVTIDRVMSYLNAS

[4] = molecular target: T3, recombinant human interleukin 12 …; assay: BIAcore; unmutated
[5] = molecular target: T3, recombinant human interleukin 12 …; assay: BIAcore; unmutated
[6] = molecular target: T4, recombinant human IL-12 (rhIL-12) (human, UniProt P29459 23-219; P29460 23-328); assay: cell-based or functional assay
T4 sequence (looked up) 1: T3 chain 2
T4 sequence (looked up) 2: T3 chain 1

[7] = molecular target: T4, recombinant human IL-12 (rhIL-12); assay: BIAcore (SPR) off-rate on IL-12 chip
Description: The system utilizes the optical properties of SPR to detect alterations in protein concentrations within a dextran biosensor matrix. Proteins are covalently bound to the dextran matrix at known concentrations. […] To determine the off rate (koff), on rate (kₒₙ), association rate (Ka) and dissociation rate (Kd) constants, BIAcore kinetic evaluation software (version 2.1) was used.

[8] = molecular target: T4, recombinant human IL-12 (rhIL-12); assay: RB assay: inhibition of 125I-hIL-12 binding to IL-12 receptors on PHA blasts
Protocol: PHA blast cells isolated as described above, were washed once and resuspended in binding buffer to a cell density of 2×10⁷ cells/ml. […] The cell pellet was examined for cell bound radioactivity using a gamma counter. […] Incubations were carried out in duplicate.

[9] = molecular target: T4, recombinant human IL-12 (rhIL-12); assay: cell-based or functional assay; remark: listed apart in the source

## C8.6.2, mouse anti-human IL-12 monoclonal antibody
Baboon IL-12 (PBMC sup)
  IC50 (M), Baboon IL-12 PBMC sup: 2e-10 M
Cyno IL-12 (PBMC sup)
  IC50 (M), Cyno IL-12 PBMC sup: 1.2e-10 M
[1]
  IC50 (M), Human IL-12 Purified: 5e-11 M
[2]
  IC50 (M), Rhesus IL-12 Purified: 1e-10 M

## FIRYDGSNKYYADSVKG [Y61 H58 Y]
[3]
  koff: 0.00031 s⁻¹

## FIRYDGSNKYYADSVKG [Y61 H56 N]
[3]
  koff: 0.000385 s⁻¹

## FTFSSYGMH [Y61 H31 S]
[4]
  koff: 0.000249 s⁻¹

## FTFSSYGMH [Y61 H33 G]
[4]
  koff: 0.000178 s⁻¹

## FIRYDGSNKYYADSVKG [Y61 H52 R]
[5]
  koff: 0.000206 s⁻¹

## FTFSSYGMH [Y61 H32 Y]
[4]
  koff: 0.000337 s⁻¹

## FIRYDGSNKYYADSVKG [Y61 H50 F]
[5]
  koff: 0.000204 s⁻¹

## FIRYDGSNKYYADSVKG [Y61 H54 G]
[5]
  koff: 0.000178 s⁻¹

## FTFSSYGMH [Y61 H30 S]
[4]
  koff: 0.000168 s⁻¹

B1: Y61 IgG (antibody, V domains shown)
VH: QVQLVQSGGGVVQPGRSLRLSCAASGFTFSSYGMHWVRQAPGKGLEWVAFIRYDGSNKYYADSVKGRFTISRDNSKNTLYLQMKSLRAEDTAVYYCKTHGSHDNWGQGTMVTVSS
VL: SYVLTQPPSVSGTPGQRVTISCSGGRSWIGSNTVKWYQQLPGTAPKLLIYGNDQRPSGVPDRFSGSKSGTSASLAITGVQAEDEADYYCQSYDRGTHPALLFGTGTKVTVLG
Cyno IL-12 (PBMC sup)
  IC50 (M), Cyno IL-12 PBMC sup: 2.2e-10 M
[2]
  IC50 (M), Rhesus IL-12 Purified: 1e-10 M

B2: 149-6 (scFv, V domains shown)
VH: B1 VH with K97T
VL: B1 VL with W28N, G30V, T96F, H97T, P98G, A99S, L100R, L101V
[6]
  PHA assay IC50 (M) p70:p40 1:0: 9e-10 M
  PHA assay IC50 (M) p70:p40 1:20: 1e-09 M
  PHA assay IC50 (M) p70:p40 1:50: 1e-09 M

B3: 99-F8 (scFv, V domains shown)
VH: B1 VH
VL: SYVLTQPPSVSGTPGQRVTISCSGGRSNIGSNTVKWYQQLPGTAPKLLIYGNDQRPSGVPDRFSGSKSGTSASLAITGVQAEDEADYYCQSYIRAPQQVFGTGTKVTVLG
[7]
  koff: 0.0037 s⁻¹

B4: D9 (scFv, V domains shown)
VH: B1 VH
VL: B1 VL with W28N, T96R, H97L, L100Q, L101T
[8]
  IC50: 3.5 nM
[7]
  koff: 0.000821 s⁻¹

B5: 99-F6 (scFv, V domains shown)
VH: B1 VH
VL: B1 VL with W28N, R94S, T96S, H97T, P98G, A99S, L100R, L101V
[7]
  koff: 0.0049 s⁻¹

B6: Y61 (scFv, V domains shown)
VH: B1 VH
VL: B1 VL
notes: scFv; also called Y61 scFv
[9]
  PHA assay IC50: 0.14 nM
[8]
  IC50: 0.04 nM
[7]
  koff: 0.000275 s⁻¹

B7: Y61-L50Y-H31E-L94Y IgG (antibody, V domains shown)
VH: B1 VH with S31E
VL: B1 VL with W28N, G51Y, G95Y
[9]
  IFN gamma IC50: 0.01 nM
  PHA assay IC50: 0.01 nM
[7]
  koff: 4.64e-05 s⁻¹

B8: Y55 (scFv, V domains shown)
VH: B1 VH
VL: B1 VL with W28N, P98F, A99Q, L100M, L101Y
[9]
  PHA assay IC50: > 10 nM
[8]
  IC50: 0.14 nM
[7]
  koff: 0.00106 s⁻¹

B9: Y19 (scFv, V domains shown)
VH: B1 VH
VL: B1 VL with W28N, T96H, L100M, L101S
[9]
  PHA assay IC50: > 10 nM
[8]
  IC50: 0.03 nM
[7]
  koff: 0.000226 s⁻¹

B10: 99-F7 (scFv, V domains shown)
VH: B1 VH
VL: B1 VL with W28N, D93P, R94N, G95S, T96Y, H97P, P98I, A99S, L100R, L101V
[7]
  koff: 0.0048 s⁻¹

B11: 99-H11 (scFv, V domains shown)
VH: B1 VH
VL: B1 VL with W28N, D93S, R94T, G95H, T96M, H97P, P98I, A99S, L100R, L101V
[7]
  koff: 0.0049 s⁻¹

B12: 149-5 (scFv, V domains shown)
VH: B1 VH with K97T, N104T
VL: B1 VL with W28N, R94S, G95S, T96L, H97W, P98G, A99T, L100R, L101V
[6]
  PHA assay IC50 (M) p70:p40 1:0: 6.5e-09 M
  PHA assay IC50 (M) p70:p40 1:20: 7e-09 M
  PHA assay IC50 (M) p70:p40 1:50: 4e-09 M

B13: 99-H7 (scFv, V domains shown)
VH: B1 VH
VL: B1 VL with W28N, D93P, R94D, H97P, P98A, A99S, L100R, L101V
[7]
  koff: 0.0033 s⁻¹

B14: 136-15 (scFv, V domains shown)
VH: B1 VH
VL: B1 VL with G25S, W28N, S91T, R94K, T96F, H97T, P98G, A99S, L100S, L101V
[6]
  PHA assay IC50 (M) p70:p40 1:20: 5e-09 M
  PHA assay IC50 (M) p70:p40 1:50: 4e-09 M

B15: Y61-L50Y-H31E IgG (antibody, V domains shown)
VH: B1 VH with S31E
VL: B1 VL with G51Y
[9]
  IFN gamma IC50: 0.02 nM
  PHA assay IC50: 0.06 nM
[7]
  koff: 2.99e-05 s⁻¹

B16: J695 (Y61-L94Y-L50Y IgG) (antibody, V domains shown)
VH: B1 VH with Q6E, K84N
VL: B1 VL with S1Q, Y2S, T13A, G25S, W28N, G51Y, V79L, G95Y
Baboon IL-12 (PBMC sup)
  IC50 (M), Baboon IL-12 PBMC sup: 1.5e-11 M
Cyno IL-12 (PBMC sup)
  IC50 (M), Cyno IL-12 PBMC sup: 1e-11 M

## FIRYDGSNKYYADSVKG [Y61 H53 D]
[5]
  koff: 0.000151 s⁻¹
